Patent publication US20020062009A1 (GlaxoSmithKline, published 2002)
Blank lines part the entries; values can stand above or below the binder they belong to.

Experiments:
[1] = biological target: T1, human erythropoietin receptor (EPOr), recombinant entire extracellular domain (human, UniProt P19235 25-250); test: BIAcore 1000 SPR
T1 construct: extracellular domain; also called human EPOr; monomeric EPOr
T1 sequence (looked up): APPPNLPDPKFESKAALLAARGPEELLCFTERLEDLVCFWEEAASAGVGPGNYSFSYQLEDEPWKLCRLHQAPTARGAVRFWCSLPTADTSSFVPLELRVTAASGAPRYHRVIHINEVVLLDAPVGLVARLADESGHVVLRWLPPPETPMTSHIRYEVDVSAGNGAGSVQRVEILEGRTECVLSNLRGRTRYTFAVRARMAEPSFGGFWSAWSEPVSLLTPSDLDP
Procedure: (§1) A BIAcore analysis (Pharmacia) was performed to determine the binding affinity for human EPOr of murine 3G9 and CP3G9. The interaction of CP3G9 as well as murine 3G9 with EPOr was characterized using a BIAcore 1000 biosensor. Descriptions of the instrumentation and the sensor surfaces are described in Brigham-Burke et al., Anal. Biochem., 205:125-131 (1992).
(§2) CP3G9 was captured onto a sensor surface of immobilized protein A. The kinetic binding constants were determined by passing solutions of monomeric EPOr over the surface and monitoring binding versus time. The equilibrium dissociation constant for the interaction was then derived from the ratio of the kinetic constants. The parent murine 3G9 was captured onto a surface of protein A captured rabbit anti-mouse Fc specific polyclonal antibody. The kinetics and dissociation constant for the interaction with EPOr was determined as described above. All measurements were made in 10 mM sodium phosphate, 150 mM NaCl pH 7.23 mM EDTA and 0.005% Tween 20. The flow rate was 60 uL/min. The temperature was 20° C.

[2] = biological target: T1, human erythropoietin receptor (EPOr), …; test: BIAcore 1000 SPR; antibody captured on immobilized protein A, monomeric EPOr in solution, 20 C
Procedure: as §1, §2

[3] = biological target: T1, human erythropoietin receptor (EPOr), …; test: BIAcore 1000 SPR; antibody captured on immobilized protein A, monomeric EPOr in solution, 20 C; KD from ratio of kinetic constants
Procedure: as §1, §2

[4] = biological target: T1, human erythropoietin receptor (EPOr), …; test: BIAcore 1000 SPR; antibody captured on immobilized protein A, monomeric EPOr in solution, 20 C (exponent as printed; kon and KD imply 10^-3)
Procedure: as §1, §2

[5] = biological target: T1, human erythropoietin receptor (EPOr), …; test: BIAcore 1000 SPR; antibody captured by protein A-bound rabbit anti-mouse Fc, monomeric EPOr in solution, 20 C
Procedure: as §1, §2

[6] = biological target: T1, human erythropoietin receptor (EPOr), …; test: BIAcore 1000 SPR; antibody captured by protein A-bound rabbit anti-mouse Fc, monomeric EPOr in solution, 20 C; KD from ratio of kinetic constants
Procedure: as §1, §2

[7] = biological target: T1, human erythropoietin receptor (EPOr), …; test: BIAcore 1000 SPR; antibody captured by protein A-bound rabbit anti-mouse Fc, monomeric EPOr in solution, 20 C (exponent as printed; kon and KD imply 10^-3)
Procedure: as §1, §2

[8] = biological target: T2, purified human alpha v beta 3 integrin (biotinylated) (human, UniProt P06756 31-1048; P05106 27-788, limits assumed); test: ORIGEN electrochemiluminescence; antibody dilutions with biotinylated purified integrin, captured on streptavidin beads
T2 construct: also called αvβ3; human integrin αvβ3
Procedure: The relative binding avidity of CPB9 was compared to that of the original murine B9 antibody as follows. CPB9 antibodies present in culture supernatants from cells maintained in culture for 5 days after transfection with the expression constructs were compared to the parental murine B9 antibody using the ORIGEN technology (IGEN Inc, Gaithersburg, Md.). Briefly, different dilutions of the B9 variants were incubated with purified human αvβ3 integrin which had previously been biotinylated, and an electrochemiluminescent TAG moiety specific for the antibody C regions. B9 variant antibody bound to the integrin was measured by capturing the immune complexes onto streptavidin beads followed by analysis on the ORIGEN instrument.

T2 sequence (P06756 31-1048 limits assumed, form in doubt, chain 1 of 2): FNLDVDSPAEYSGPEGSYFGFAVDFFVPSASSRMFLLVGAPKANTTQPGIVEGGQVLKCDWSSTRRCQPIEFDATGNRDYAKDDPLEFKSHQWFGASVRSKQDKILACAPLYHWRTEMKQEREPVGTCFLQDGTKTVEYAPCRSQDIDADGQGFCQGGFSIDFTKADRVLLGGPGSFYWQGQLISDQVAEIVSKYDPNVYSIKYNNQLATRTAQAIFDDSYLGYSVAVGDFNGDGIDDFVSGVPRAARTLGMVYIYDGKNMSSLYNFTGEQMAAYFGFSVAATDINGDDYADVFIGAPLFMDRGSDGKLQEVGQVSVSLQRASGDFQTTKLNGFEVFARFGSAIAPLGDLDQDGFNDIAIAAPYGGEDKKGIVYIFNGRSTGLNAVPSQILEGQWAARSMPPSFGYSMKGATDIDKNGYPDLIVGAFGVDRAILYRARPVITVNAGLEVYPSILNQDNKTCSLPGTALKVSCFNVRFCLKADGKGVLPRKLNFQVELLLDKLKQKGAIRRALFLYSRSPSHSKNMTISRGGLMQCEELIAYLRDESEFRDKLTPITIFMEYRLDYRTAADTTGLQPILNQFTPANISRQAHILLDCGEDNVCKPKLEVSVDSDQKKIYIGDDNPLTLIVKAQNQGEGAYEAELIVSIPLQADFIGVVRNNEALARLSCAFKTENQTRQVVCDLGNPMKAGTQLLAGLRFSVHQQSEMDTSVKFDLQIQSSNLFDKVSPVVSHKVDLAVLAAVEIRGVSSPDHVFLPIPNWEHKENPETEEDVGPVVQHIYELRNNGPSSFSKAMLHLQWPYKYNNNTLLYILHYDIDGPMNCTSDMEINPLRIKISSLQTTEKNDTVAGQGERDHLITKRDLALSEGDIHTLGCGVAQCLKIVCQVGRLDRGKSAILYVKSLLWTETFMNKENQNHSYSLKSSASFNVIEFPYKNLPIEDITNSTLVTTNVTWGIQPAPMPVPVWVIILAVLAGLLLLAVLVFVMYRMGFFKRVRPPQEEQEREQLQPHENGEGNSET
T2 sequence (P05106 27-788 limits assumed, form in doubt, chain 2 of 2): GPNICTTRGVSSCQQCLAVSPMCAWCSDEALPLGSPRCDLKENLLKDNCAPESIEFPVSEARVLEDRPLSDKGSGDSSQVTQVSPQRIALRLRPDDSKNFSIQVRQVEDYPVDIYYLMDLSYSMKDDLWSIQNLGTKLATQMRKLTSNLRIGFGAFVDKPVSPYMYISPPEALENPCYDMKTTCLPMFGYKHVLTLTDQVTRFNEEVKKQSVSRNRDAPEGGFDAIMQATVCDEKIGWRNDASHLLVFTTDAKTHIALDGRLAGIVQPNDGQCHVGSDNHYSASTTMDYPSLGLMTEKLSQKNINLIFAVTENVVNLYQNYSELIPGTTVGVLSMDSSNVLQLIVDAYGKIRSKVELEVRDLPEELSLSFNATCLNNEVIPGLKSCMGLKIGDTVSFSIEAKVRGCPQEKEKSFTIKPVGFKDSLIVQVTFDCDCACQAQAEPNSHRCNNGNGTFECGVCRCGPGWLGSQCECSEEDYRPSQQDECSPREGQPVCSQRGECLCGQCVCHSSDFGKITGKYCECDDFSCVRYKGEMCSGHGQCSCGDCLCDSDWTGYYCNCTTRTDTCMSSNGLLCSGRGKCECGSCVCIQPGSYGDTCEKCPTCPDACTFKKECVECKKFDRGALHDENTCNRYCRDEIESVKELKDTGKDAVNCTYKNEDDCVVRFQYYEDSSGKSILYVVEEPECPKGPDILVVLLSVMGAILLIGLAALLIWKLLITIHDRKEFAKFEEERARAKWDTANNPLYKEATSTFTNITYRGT

fold difference of KD against murine 3G9 [1]: ≤ 3 fold
kon [2]: 1e+06 M⁻¹ s⁻¹
Kd [3]: 9.1 nM
koff [4]: 0.0091 s⁻¹
B1: engineered 3G9 (CP3G9), chimpanzee framework engineered anti-erythropoietin receptor antibody (antibody, IgG1, V domains shown)
VH: QVQLVQSGAEVKKPGSSVKVSCKASGSTFTSYWMHWVKQAPGQGLEWIGRIDPNSGGTKDNEKFKSKATLNVDKSTNIAYMELTSLRSEDTAVYYCARETYYDSSFAYWGQGTMVTVS
VL: DIVMTQSPSSLSASVGDRVTITCKASQNVGTNVAWYQQKPGKAPKALIYSASYRYSGVPDRFSGSGSGTDFTLTISSLQPEDFATYYCQQYNSYPLTFGGGTKVEIK
notes: They were ligated into vectors with IgG1,kappa antibody constant regions and expressed in COS cells; also called chimpanzee version of 3G9

kon [5]: 1.2e+06 M⁻¹ s⁻¹
Kd [6]: 3.3 nM
koff [7]: 0.004 s⁻¹
B2: murine anti-erythropoietin receptor antibody 3G9 (antibody, V domains shown)
VH: QVQLQQPGAELVKSGASVKLSCKASGSTFTSYWMHWVKQRPGRGLEWIGRIDPNSGGTKDNEKFKSKATLTVDKPSSTAYMQLSSLTSEDSAVYYCARETYYDSSFAYWGQGTLVTVSA
VL: DIVMTQSQKFMSTSVGDRVSVTCKASQNVGTNVAWYQQKPGQSPKALIYSASYRYSGVPDRFTGSGSGTDFTLTISNVQSEDLAEYFCQQYNSYPLTFGAGTKLELKR
notes: Murine monoclonal antibody; also called murine 3G9; parent murine 3G9

fold displacement of binding curve against murine B9 [8]: ~3 fold
B3: engineered B9 (CPB9), chimpanzee framework engineered anti-integrin antibody (antibody, IgG1, V domains shown)
VH: QVQLVQSGAEVKKPGSSVKVSCKASGYTFSSYWIEWVKQAPGQGLEWIGEILPRSGNTNYNEKFKGKASFNADTSTNIAYMELTSLRSEDTAVYYCSSRGVRGSMDYWGQGTLVTVSS
VL: DIQMTQSPSSLSASVGDRVTITCRSSQDISNFLNWYQQKPGKAPKLLIYYTSTLHSGVPSRFSGSGSGTDYTLTISSLQPEDFATYYCQQGNTLPWTFGGGTKVEIKR
notes: They were ligated into vectors with IgG1,kappa antibody constant regions and expressed in COS cells; Tested as culture supernatant
